Experimental data from paper PMC6310021 (Science translational medicine, 2018).
Read-outs that look alike come from different tables or passages of the source. Values belong to the binder of their own block, whether it stands above or below them.

How the values were obtained:
[1] = target: T1, purified rat recombinant TG2 protein (transgelin-2) (rat, UniProt Q5XFX0 1-199); assay: SPR
[2] = target: T1, purified rat recombinant TG2 protein …; assay: SPR; remark: listed apart in the source
[3] = target: transgelin-2 (TG2) of rat airway smooth muscle cells (rat (endogenous in rat ASMCs), UniProt Q5XFX0 1-199); assay: radioligand binding
Sequence of transgelin-2 (TG2) of rat airway smooth muscle cells (Q5XFX0 whole entry): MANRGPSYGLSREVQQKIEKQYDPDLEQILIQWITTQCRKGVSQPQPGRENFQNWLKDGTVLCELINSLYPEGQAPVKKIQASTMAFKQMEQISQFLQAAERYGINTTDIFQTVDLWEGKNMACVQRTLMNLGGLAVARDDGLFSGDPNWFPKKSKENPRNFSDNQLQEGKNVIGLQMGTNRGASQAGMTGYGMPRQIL

T1 sequence (Q5XFX0 whole entry): as above

Kd [1]: 110 nM
Kd [2]: 442 nM
B1: 6×His tag MT-2 recombinant protein (rat metallothionein-2) (natural protein)
chain: not shown

Kd [3]: 33.4 nM
B2: 125I-labeled MT-2 (natural protein)
chain: not shown
modifications: 125I label (site not stated)
